Values of other authors as cited in US5770691A, “Discriminatory substrates for MMP hydrolysis” (Regents of the University of Minnesota, priority 1995, dated 1998).

Molecular target: MMP-3 (Homo sapiens, UniProt P08254)
Conditions: MMP-3 cleavage, determined at 37° C.

Chain of MMP-3 (P08254 100-477, species assumed): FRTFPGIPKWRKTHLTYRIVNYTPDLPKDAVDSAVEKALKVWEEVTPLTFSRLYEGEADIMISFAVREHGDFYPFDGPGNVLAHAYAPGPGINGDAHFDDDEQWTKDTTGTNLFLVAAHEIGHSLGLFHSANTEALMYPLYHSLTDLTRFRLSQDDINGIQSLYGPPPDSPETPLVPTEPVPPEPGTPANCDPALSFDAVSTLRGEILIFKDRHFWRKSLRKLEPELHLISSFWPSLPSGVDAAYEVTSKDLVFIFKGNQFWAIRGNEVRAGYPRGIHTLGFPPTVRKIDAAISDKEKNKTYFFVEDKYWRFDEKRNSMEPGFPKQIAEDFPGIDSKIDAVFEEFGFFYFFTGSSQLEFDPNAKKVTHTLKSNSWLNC

B1: Human α1 -antichymotrypain: protease inhibitor cleaved by MMP-3 at Ala360-Leu361 (protein, UniProt P01011 24-423, looked up)
Alpha-1-antichymotrypsin: HPNSPLDEENLTQENQDRGTHVDLGLASANVDFAFSLYKQLVLKAPDKNVIFSPLSISTALAFLSLGAHNTTLTEILKGLKFNLTETSEAEIHQSFQHLLRTLNQSSDELQLSMGNAMFVKEQLSLLDRFTEDAKRLYGSEAFATDFQDSAAAKKLINDYVKNGTRGKITDLIKDLDSQTMMVLVNYIFFKAKWEMPFDPQDTHQSRFYLSKKKWVMVPMMSLHHLTIPYFRDEELSCTVVELKYTGNASALFILPDQDKMEEVEAMLLPETLKRWRDSLEFREIGELYLPKFSISRDYNLNDILLQLGIEEAFTSKADLSGITGARNLAVSQVVHKAVLDVFEEGTEASAATAVKITLLSALVETRTIVRFNRPFLMIIVPTDTQNIFFMSKVTNPKQA
Question: With B1 as the molecule, how does the “kcat /Kb” value read?
Answer: 35,000 S^-1 M^-1
